According to patent US20080233131A1:

Legend:
[1] = molecular target: cynomolgus macaque CD4 on lymphocytes / PBMC (cynomolgus macaque (Macaca fascicularis)) (UniProt P79185); experiment: flow cytometry of whole blood of TRX1-immunised macaques; competitor 7E14-RPE
[2] = molecular target: cynomolgus macaque CD4 on lymphocytes / PBMC (cynomolgus macaque (Macaca fascicularis)) (UniProt P79185); experiment: flow cytometry of whole blood of TRX1-treated macaques; competitor SK3-RPE

Sequence of UniProt P79185 (P79185 26-458 limits assumed): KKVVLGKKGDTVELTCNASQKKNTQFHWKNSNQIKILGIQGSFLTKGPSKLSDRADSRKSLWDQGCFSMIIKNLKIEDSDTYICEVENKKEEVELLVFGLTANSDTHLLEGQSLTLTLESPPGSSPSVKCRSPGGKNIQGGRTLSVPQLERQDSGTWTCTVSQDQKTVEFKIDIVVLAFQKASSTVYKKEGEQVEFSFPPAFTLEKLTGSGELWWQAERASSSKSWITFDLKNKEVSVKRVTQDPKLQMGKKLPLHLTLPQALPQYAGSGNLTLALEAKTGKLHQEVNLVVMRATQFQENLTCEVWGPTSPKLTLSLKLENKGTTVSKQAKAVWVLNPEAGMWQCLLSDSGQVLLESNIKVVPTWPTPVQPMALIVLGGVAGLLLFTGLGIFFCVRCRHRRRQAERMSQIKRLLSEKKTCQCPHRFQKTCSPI

## humanized anti-human CD4 monoclonal antibody TRX1
[1]
  reduction in the MFI of 7E14 staining: 50%
[2]
  reduction in the MFI of SK3 staining: 50%
